Source: patent US20250026792A1, “SELF-ASSEMBLING PEPTIDES WITH HYALURONIC ACID BINDING DOMAINS AND METHODS OF USE THEREOF” (Northwestern University, priority 2022, published 2025)
The star is where a group is joined. Biotin = O=C1N[C@H]2[C@H](CS[C@H]2CCCCC(=O)*)N1

Biological target: T1, elastin (bovine) (bovine, UniProt P04985 27-747, limits assumed)
T1 construct: Coated and dried on plates at 10 ug/cm2
T1 sequence (looked up): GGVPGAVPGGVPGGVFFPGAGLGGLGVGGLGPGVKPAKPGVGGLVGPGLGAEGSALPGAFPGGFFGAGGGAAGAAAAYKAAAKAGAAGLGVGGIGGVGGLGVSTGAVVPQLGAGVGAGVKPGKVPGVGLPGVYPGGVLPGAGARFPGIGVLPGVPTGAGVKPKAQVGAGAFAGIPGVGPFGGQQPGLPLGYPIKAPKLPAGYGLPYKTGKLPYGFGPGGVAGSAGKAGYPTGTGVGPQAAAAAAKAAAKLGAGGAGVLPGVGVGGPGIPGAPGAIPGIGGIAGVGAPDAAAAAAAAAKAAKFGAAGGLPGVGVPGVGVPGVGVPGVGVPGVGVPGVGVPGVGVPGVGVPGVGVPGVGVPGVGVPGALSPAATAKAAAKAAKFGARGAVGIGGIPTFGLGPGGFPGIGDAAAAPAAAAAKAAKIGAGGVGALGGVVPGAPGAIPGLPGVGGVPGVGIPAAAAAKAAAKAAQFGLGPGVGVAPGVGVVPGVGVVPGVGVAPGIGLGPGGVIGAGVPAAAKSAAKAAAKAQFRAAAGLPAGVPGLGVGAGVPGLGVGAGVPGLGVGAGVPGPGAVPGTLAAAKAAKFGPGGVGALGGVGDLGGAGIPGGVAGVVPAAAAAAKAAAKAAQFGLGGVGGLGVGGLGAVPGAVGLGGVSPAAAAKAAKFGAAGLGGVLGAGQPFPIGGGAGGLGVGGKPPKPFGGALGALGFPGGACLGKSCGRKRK
Experiment: plate assay: biotinylated peptide (5.0 mg/ml) on dried ECM coating, streptavidin-488 fluorescence
Procedure: Peptides were incubated 24 hours at 37° C. on collagens I-IV, elastin, hyaluronic acid, and Geltrex. Coatings (10 pig/cm²) were previously dried overnight in milli-Q water. Overall significance was assessed using analysis of variance, with Tukey's multiple comparison post-hoc analysis between ECM groups where n=4.
N-termini biotinylated peptides were added to coated plates at 0, 1, 2.5, 5 and 10 mg/ml overnight at 37° C. in phosphate buffered saline (PBS), pH 7.4, after which the plates were washed three times with PBS. Fluorescent streptavidin-488 (4 μg/mL) was added to each well and incubated at 37° C. temperature for 24 hours, then thoroughly washed with PBS. The plates were read with a fluorescence microplate reader for fluorescence intensity (Ex 490 nm, Em 525 nm). All data were normalized to the background fluorescence intensity of Streptavidin-488.

B1: Peptide 7c (peptide)
peptide: Biotin-KTKATVKIKNKQKSVNALKQKIVLLSK-OH
SMILES: CC[C@H](C)[C@H](NC(=O)[C@H](CCCCN)NC(=O)[C@@H](NC(=O)[C@@H](NC(=O)[C@H](C)NC(=O)[C@H](CCCCN)NC(=O)[C@@H](NC(=O)[C@H](CCCCN)NC(=O)CCCC[C@@H]1SC[C@@H]2NC(=O)N[C@@H]21)[C@@H](C)O)[C@@H](C)O)C(C)C)C(=O)N[C@@H](CCCCN)C(=O)N[C@@H](CC(N)=O)C(=O)N[C@@H](CCCCN)C(=O)N[C@@H](CCC(N)=O)C(=O)N[C@@H](CCCCN)C(=O)N[C@@H](CO)C(=O)N[C@H](C(=O)N[C@@H](CC(N)=O)C(=O)N[C@@H](C)C(=O)N[C@@H](CC(C)C)C(=O)N[C@@H](CCCCN)C(=O)N[C@@H](CCC(N)=O)C(=O)N[C@@H](CCCCN)C(=O)N[C@H](C(=O)N[C@H](C(=O)N[C@@H](CC(C)C)C(=O)N[C@@H](CC(C)C)C(=O)N[C@@H](CO)C(=O)N[C@@H](CCCCN)C(=O)O)C(C)C)[C@@H](C)CC)C(C)C
notes: Variant of 17x-3; biotinylated synthetic peptide
binding result: binds

B2: Peptide BHP4 (peptide)
peptide: Biotin-TNLRNKYTFLARARANLAVRNKQNIKS-OH
SMILES: CC[C@H](C)[C@H](NC(=O)[C@H](CC(N)=O)NC(=O)[C@H](CCC(N)=O)NC(=O)[C@H](CCCCN)NC(=O)[C@H](CC(N)=O)NC(=O)[C@H](CCCNC(=N)N)NC(=O)[C@@H](NC(=O)[C@H](C)NC(=O)[C@H](CC(C)C)NC(=O)[C@H](CC(N)=O)NC(=O)[C@H](C)NC(=O)[C@H](CCCNC(=N)N)NC(=O)[C@H](C)NC(=O)[C@H](CCCNC(=N)N)NC(=O)[C@H](C)NC(=O)[C@H](CC(C)C)NC(=O)[C@H](Cc1ccccc1)NC(=O)[C@@H](NC(=O)[C@H](Cc1ccc(O)cc1)NC(=O)[C@H](CCCCN)NC(=O)[C@H](CC(N)=O)NC(=O)[C@H](CCCNC(=N)N)NC(=O)[C@H](CC(C)C)NC(=O)[C@H](CC(N)=O)NC(=O)[C@@H](NC(=O)CCCC[C@@H]1SC[C@@H]2NC(=O)N[C@@H]21)[C@@H](C)O)[C@@H](C)O)C(C)C)C(=O)N[C@@H](CCCCN)C(=O)N[C@@H](CO)C(=O)O
notes: Variant of BHP3; biotinylated synthetic peptide; also called BPH4
binding result: binds
